{"source": "paper doi:10.1101/590430", "about": "(bioRxiv, 2019)", "binders": {"B1": {"name": "TcdB2 (TcB), as the TcB part of the TcdB2-TccC3 fusion protein (natural protein)", "chain": "MQNSQDFSITELSLPKGGGAITGMGEALTPTGPDGMAALSLPLPISAGRGYAPAFTLNYNSGAGNSPFGLGWDCNVMTIRRRTHFGVPHYDETDTFLGPEGEVLVVADQPRDESTLQGINLGATFTVTGYRSRLESHFSRLEYWQPKTTGKTDFWLIYSPDGQVHLLGKSPQARISNPSQTTQTAQWLLEASVSSRGEQIYYQYRAEDDTGCEADEITHHLQATAQRYLHIVYYGNRTASETLPGLDGSAPSQADWLFYLVFDYGERSNNLKTPPAFSTTGSWLCRQDRFSRYEYGFEIRTRRLCRQVLMYHHLQALDSKITEHNGPTLVSRLILNYDESAIASTLVFVRRVGHEQDGNVVTLPPLELAYQDFSPRHHAHWQPMDVLANFNAIQRWQLVDLKGEGLPGLLYQDKGAWWYRSAQRLGEIGSDAVTWEKMQPLSVIPSLQSNASLVDINGDGQLDWVITGPGLRGYHSQRPDGSWTRFTPLNALPVEYTHPRAQLADLMGAGLSDLVLIGPKSVRLYANTRDGFAKGKDVVQSGDITLPVPGADPRKLVAFSDVLGSGQAHLVEVSATKVTCWPNLGRGRFGQPITLPGFSQPATEFNPAQVYLADLDGSGPTDLIYVHTNRLDIFLNKSGNGFAEPVTLRFPEGLRFDHTCQLQMADVQGLGVASLILSVPHMSPHHWRCDLTNMKPWLLNEMNNNMGVHHTLRYRSSSQFWLDEKAAALTTGQTPVCYLPFPIHTLWQTETEDEISGNKLVTTLRYARGAWDGREREFRGFGYVEQTDSHQLAQGNAPERTPPALTKNWYATGLPVIDNALSTEYWRDDQAFAGFSPRFTTWQDNKDVPLTPEDDNSRYWFNRALKGQLLRSELYGLDDSTNKHVPYTVTEFRSQVRRLQHTDSRYPVLWSSVVESRNYHYERIASDPQCSQNITLSSDRFGQPLKQLSVQYPRRQQPAINLYPDTLPDKLLANSYDDQQRQLRLTYQQSSWHHLTNNTVRVLGLPDSTRSDIFTYGAENVPAGGLNLELLSDKNSLIADDKPREYLGQQKTAYTDGQNTTPLQTPTRQALIAFTETTVFNQSTLSAFNGSIPSDKLSTTLEQAGYQQTNYLFPRTGEDKVWVAHHGYTDYGTAAQFWRPQKQSNTQLTGKITLIWDANYCVVVQTRDAAGLTTSAKYDWRFLTPVQLTDINDNQHLITLDALGRPITLRFWGTENGKMTGYSSPEKASFSPPSDVNAAIELKKPLPVAQCQVYAPESWMPVLSQKTFNRLAEQDWQKLYNARIITEDGRICTLAYRRWVQSQKAIPQLISLLNNGPRLPPHSLTLTTDRYDHDPEQQIRQQVVFSDGFGRLLQAAARHEAGMARQRNEDGSLIINVQHTENRWAVTGRTEYDNKGQPIRTYQPYFLNDWRYVSNDSARQEKEAYADTHVYDPIGREIKVITAKGWFRRTLFTPWFTVNEDENDTAAEVKKVKM"}}, "molecular_target": "P. luminescens TcdA1 (TcA) (P. luminescens, UniProt Q9RN43 1-2516)", "experiment": "cryo-EM structure", "data": [{"binder": "B1", "values": [{"measurement": "binding result", "value": "binds"}]}]}
